# Test results taken from patent CN117700537A.
# Molecular target: 非洲马瘟病毒VP7重组蛋白 (AHSV VP7重组蛋白, 原核表达) (African horse sickness virus (非洲马瘟病毒))
# Assay: indirect ELISA, negative control on coated VP7 recombinant protein (0.5 μg/mL)
substance,measurement,value
"阴性对照 (阴性抗体, 表2) (antibody)",OD450,0.0655 OD450
